{
  "source": "patent US20060084085",
  "key": {"[1]": {"target": "T1, peptide 29 variant that retained K553 (RRKR)", "T1 chain": "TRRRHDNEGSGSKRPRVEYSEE"}, "[2]": {"target": "T2, Ku70 peptide 8 (amino acids 157-173)", "T2 chain": "VQFKMSHKRIMLFTNED"}, "[3]": {"target": "T3, Ku70 peptide 3 (amino acids 44-58)", "T3 chain": "ASKAMFESQSEDELT"}, "[4]": {"target": "T4, Ku70 peptide 15 (amino acids 310-322)", "T4 chain": "LLLPSDTKRSQIY"}, "[5]": {"target": "T5, Ku70 peptide 29 (amino acids 541-562)", "T5 chain": "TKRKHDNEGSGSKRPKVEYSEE"}, "[6]": {"target": "recombinant Ku70/80 complex, P13010", "sequence (chain, as listed by the source, chain 1 of 2)": "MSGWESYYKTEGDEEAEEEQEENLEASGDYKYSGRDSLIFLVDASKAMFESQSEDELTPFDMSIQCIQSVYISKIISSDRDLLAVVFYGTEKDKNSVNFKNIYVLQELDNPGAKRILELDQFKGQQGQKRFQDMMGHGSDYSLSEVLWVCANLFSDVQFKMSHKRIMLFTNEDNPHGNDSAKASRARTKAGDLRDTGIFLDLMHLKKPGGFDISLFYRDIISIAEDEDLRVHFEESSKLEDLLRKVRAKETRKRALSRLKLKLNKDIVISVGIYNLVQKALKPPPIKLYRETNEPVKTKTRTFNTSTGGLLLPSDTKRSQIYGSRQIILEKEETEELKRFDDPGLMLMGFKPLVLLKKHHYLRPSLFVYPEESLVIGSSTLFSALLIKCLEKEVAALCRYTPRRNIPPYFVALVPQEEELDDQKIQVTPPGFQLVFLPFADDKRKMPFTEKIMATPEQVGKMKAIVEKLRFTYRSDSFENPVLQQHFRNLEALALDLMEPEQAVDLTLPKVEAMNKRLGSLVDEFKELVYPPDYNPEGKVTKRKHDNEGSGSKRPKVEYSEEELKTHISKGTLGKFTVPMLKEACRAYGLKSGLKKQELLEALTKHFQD", "sequence (P13010 whole entry, chain 2 of 2)": "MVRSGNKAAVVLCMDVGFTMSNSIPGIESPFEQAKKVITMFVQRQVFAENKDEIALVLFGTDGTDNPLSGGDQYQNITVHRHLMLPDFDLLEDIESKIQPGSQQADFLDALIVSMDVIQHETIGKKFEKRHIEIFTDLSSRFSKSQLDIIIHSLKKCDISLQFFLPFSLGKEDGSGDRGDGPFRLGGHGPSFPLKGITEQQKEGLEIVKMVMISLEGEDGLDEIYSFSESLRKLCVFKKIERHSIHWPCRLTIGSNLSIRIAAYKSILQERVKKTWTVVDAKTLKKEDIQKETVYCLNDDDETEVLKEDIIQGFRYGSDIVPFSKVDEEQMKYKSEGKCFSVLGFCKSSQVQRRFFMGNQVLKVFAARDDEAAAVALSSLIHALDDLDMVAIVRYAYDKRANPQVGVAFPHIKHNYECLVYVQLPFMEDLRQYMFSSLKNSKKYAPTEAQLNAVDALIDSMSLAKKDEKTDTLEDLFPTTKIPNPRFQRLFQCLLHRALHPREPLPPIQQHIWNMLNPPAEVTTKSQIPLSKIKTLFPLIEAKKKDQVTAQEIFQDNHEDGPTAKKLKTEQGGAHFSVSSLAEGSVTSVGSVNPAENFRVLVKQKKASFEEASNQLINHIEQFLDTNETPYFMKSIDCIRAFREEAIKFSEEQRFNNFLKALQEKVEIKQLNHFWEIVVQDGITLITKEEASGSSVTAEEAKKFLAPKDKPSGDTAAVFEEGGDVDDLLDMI"}, "[7]": {"target": "T6, Ku70 peptide 16 (amino acids 325-341)", "T6 chain": "RQIILEKEETEELKRFD"}, "[8]": {"target": "T7, peptide 29 variant that retained K542 (KRRR)", "T7 chain": "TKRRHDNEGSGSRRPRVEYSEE"}, "[9]": {"target": "T8, acetylated Ku70 K539 peptide DYNPEGK-AcVTKRKC", "T8 chain": "DYNPEGKVTKRKC"}, "[10]": {"target": "T9, acetylated Ku70 K542 peptide PEGKVTK-AcRKHDNC", "T9 chain": "PEGKVTKRKHDNC"}, "[11]": {"target": "acetylated Ku70-K331 peptide"}},
  "data": [
    {"protein": "recombinant histone acetyltransferase (HAT) domain of PCAF (protein) MLEEEVYSQNSPIWDQDFLSASSRTSQLGIQTVINPPPVAGTISYNSTSSSLEQPNAGSSSPACKASSGLEANPGEKRKMTDSHVLEEAKKPRVMGDIPMELINEVMSTITDPAAMLGPETNFLSAHSARDEAARLEERRGVIEFHVVGNSLNQKPNKKILMWLVGLQNVFSHQLPRMPKEYITRLVFDPKHKTLALIKDGRVIGGICFRMFPSQGFTEIVFCAVTSNEQVKGYGTHLMNHLKEYHIKHDILNFLTYADEYAIGYFKKQGFSKEIKIPKTKYVGYIKDYEGATLMGCELNPRIPYTEFSVIIKKQKEIIKKLIERKQAQIRKVYPGLSCFKDGVRQIPIESIPGIRETGWKPSGKEKSKEPRDPDQLYSTLKSILQQVKSHQSAWPFMEPVKRTEAPGYYEVIRFPMDLKTMSERLKNRYYVSKKLFMADLQRVFTNCKEYNPPESEYYKCANILEKFFFSKIKEAGLIDK", "values": [
      {"measurement": "in vitro acetylation of peptide 29 variants", "setting": "[1]", "result": "K553 (RRKR) was also weakly acetylated by PCAF and CBP"},
      {"measurement": "Relative Intensity of Acetylation", "setting": "[2]", "result": "++"},
      {"measurement": "Relative Intensity of Acetylation", "setting": "[3]", "result": "+"},
      {"measurement": "Relative Intensity of Acetylation", "setting": "[4]", "result": "+++"},
      {"measurement": "Relative Intensity of Acetylation", "setting": "[5]", "result": "+++++"},
      {"measurement": "in vitro acetylation (3H-acetyl-CoA, SDS-PAGE, autoradiography)", "setting": "[6]", "result": "a strongly labeled band corresponding to the size of Ku70 was observed in each of the complete acetyltransferase reactions"},
      {"measurement": "Relative Intensity of Acetylation", "setting": "[7]", "result": "+++"},
      {"measurement": "in vitro acetylation of peptide 29 variants", "setting": "[8]", "result": "the peptide that retained K542 (KRRR) was the preferred target of both PCAF and CBP and was acetylated to almost the same extent as the original peptide 29 (KKKK)"}
    ]},
    {"protein": "human SIRT1 (protein) MADEAALALQPGGSPSAAGADREAASSPAGEPLRKRPRRDGPGLERSPGEPGGAAPEREVPAAARGCPGAAAAALWREAEAEAAAAGGEQEAQATAAAGEGDNGPGLQGPSREPPLADNLYDEDDDDEGEEEEEAAAAAIGYRDNLLFGDEIITNGFHSCESDEEDRASHASSSDWTPRPRIGPYTFVQQHLMIGTDPRTILKDLLPETIPPPELDDMTLWQIVINILSEPPKRKKRKDINTIEDAVKLLQECKKIIVLTGAGVSVSCGIPDFRSRDGIYARLAVDFPDLPDPQAMFDIEYFRKDPRPFFKFAKEIYPGQFQPSLCHKFIALSDKEGKLLRNYTQNIDTLEQVAGIQRIIQCHGSFATASCLICKYKVDCEAVRGDIFNQVVPRCPRCPADEPLAIMKPEIVFFGENLPEQFHRAMKYDKDEVDLLIVIGSSLKVRPVALIPSSIPHEVPQILINREPLPHLHFDVELLGDCDVIINELCHRLGGEYAKLCCNPVKLSEITEKPPRTQKELAYLSELPPTPLHVSEDSSSPERTSPPDSSVIVTLLDQAAKSNDDLDVSESKGCMEEKPQEVQTSRNVESIAEQMENPDLKNVGSSTGEKNERTSVAGTVRKCWPNRVAKEQISRRLDGNQYLFLPPNRYIFHGAEVYSDSEDDVLSSSSCGSNSDSGTCQSPSLEEPMEDESEIEEFYNGLEDEPDVPERAGGAGFGTDGDDQEAINEAISVKQEVTDMNYPSNKS", "values": [
      {"measurement": "deacetylation of acetylated Ku70 peptide by recombinant SIRT1 (slot blot with pan-acetyl-lysine antibody; fluorogenic peptide assay)", "setting": "[9]", "result": "SIRT1 efficiently deacetylated the two lysines in the C-terminus of Ku70 that are critical for regulating Bax"},
      {"measurement": "deacetylation of acetylated Ku70 peptide by recombinant SIRT1 (slot blot with pan-acetyl-lysine antibody; fluorogenic peptide assay)", "setting": "[10]", "result": "SIRT1 efficiently deacetylated the two lysines in the C-terminus of Ku70 that are critical for regulating Bax"},
      {"measurement": "deacetylation of acetylated Ku70 peptide by SIRT1", "setting": "[11]", "result": "this residue is acetylated in vivo, but is both a poor substrate of SIRT1 (FIG. 8D) and plays no apparent role in Bax-mediated apoptosis in vivo"}
    ]},
    {"protein": "recombinant histone acetyltransferase (HAT) domain of p300 (protein) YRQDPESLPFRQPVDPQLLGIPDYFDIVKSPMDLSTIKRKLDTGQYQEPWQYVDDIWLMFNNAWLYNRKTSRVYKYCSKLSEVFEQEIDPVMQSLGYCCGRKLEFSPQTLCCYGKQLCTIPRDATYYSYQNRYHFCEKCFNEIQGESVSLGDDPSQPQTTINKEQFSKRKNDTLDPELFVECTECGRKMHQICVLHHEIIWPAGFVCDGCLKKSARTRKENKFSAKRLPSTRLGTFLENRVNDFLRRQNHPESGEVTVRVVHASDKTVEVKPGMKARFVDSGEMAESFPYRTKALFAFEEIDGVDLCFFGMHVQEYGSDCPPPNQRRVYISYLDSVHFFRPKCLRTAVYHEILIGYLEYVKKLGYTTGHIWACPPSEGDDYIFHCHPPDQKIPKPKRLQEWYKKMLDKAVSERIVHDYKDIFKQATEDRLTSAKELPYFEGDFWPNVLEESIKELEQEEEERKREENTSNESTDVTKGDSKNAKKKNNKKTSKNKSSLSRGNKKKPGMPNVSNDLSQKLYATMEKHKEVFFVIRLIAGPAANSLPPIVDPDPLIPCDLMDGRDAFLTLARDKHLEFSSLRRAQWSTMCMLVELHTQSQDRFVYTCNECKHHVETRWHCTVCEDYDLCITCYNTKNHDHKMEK", "values": [
      {"measurement": "in vitro acetylation (3H-acetyl-CoA, SDS-PAGE, autoradiography)", "setting": "[6]", "result": "a strongly labeled band corresponding to the size of Ku70 was observed in each of the complete acetyltransferase reactions"}
    ]},
    {"protein": "recombinant histone acetyltransferase (HAT) domain of CBP (protein) LEALYRQDPESLPFRQPVDPQLLGIPDYFDIVKNPMDLSTIKRKLDTGQYQEPWQYVDDVWLMFNNAWLYNRKTSRVYKFCSKLAEVFEQEIDPVMQSLGYCCGRKYEFSPQTLCCYGKQLCTIPRDAAYYSYQNRYHFCEKCFTEIQGENVTLGDDPSQPQTTISKDQFEKKKNDTLDPEPFVDCKECGRKMHQICVLHYDIIWPSGFVCDNCLKKTGRPRKENKFSAKRLQTTRLGNHLEDRVNKFLRRQNHPEAGEVFVRVVASSDKTVEVKPGMKSRFVDSGEMSESFPYRTKALFAFEEIDGVDVCFFGMHVQEYGSDCPPPNTRRVYISYLDSIHFFRPRCLRTAVYHEILIGYLEYVKKLGYVTGHIWACPPSEGDDYIFHCHPPDQKIPKPKRLQEWYKKMLDKAFAERIIHDYKDIFKQATEDRLTSAKELPYFEGDFWPNVLEESIKELEQEEEERKKEESTAASETTEGSQGDSKNAKKKNNKKTNKNKSSISRANKKKPSMPNVSNDLSQKLYATMEKHKEVFFVIHLHAGPVINTLPPIVDPDPLLSCDLMDGRDAFLTLARDKHWEFSSLRRSKWSTLCMLVELHTQGQDRFVYTCNECKHHVETRWHCTVCEDYDLCINCYNTKSHAHKMVKWGLGLDDEGSSQGE", "values": [
      {"measurement": "in vitro acetylation of peptide 29 variants", "setting": "[1]", "result": "K553 (RRKR) was also weakly acetylated by PCAF and CBP"},
      {"measurement": "in vitro acetylation of Ku70 peptides", "setting": "[5]", "result": "only two (16 and 29) were strongly acetylated by both PCAF and CBP"},
      {"measurement": "in vitro acetylation (3H-acetyl-CoA, SDS-PAGE, autoradiography)", "setting": "[6]", "result": "a strongly labeled band corresponding to the size of Ku70 was observed in each of the complete acetyltransferase reactions; Based on the intensity of the bands, CBP has the strongest preference for Ku70"},
      {"measurement": "in vitro acetylation of Ku70 peptides", "setting": "[7]", "result": "only two (16 and 29) were strongly acetylated by both PCAF and CBP"},
      {"measurement": "in vitro acetylation of peptide 29 variants", "setting": "[8]", "result": "the peptide that retained K542 (KRRR) was the preferred target of both PCAF and CBP and was acetylated to almost the same extent as the original peptide 29 (KKKK)"}
    ]}
  ]
}
